Laboratory results as given in patent US20220395548A1 (MOREHOUSE SCHOOL OF MEDICINE, published 2022).

Legend:
[1] = target: T1, purified HIV-1 gp120 (gp120-IIIB, Immuno Dx) (HIV-1 (IIIB), UniProt P04578 33-511); test: SPR (Biacore T200), gp120 amine-coupled to CM5 chip, MoMo30 flowed over; 1:1 model fit; three independent measurements in triplicate
T1 construct: domain: gp120; also called HIV gp120; purified gp120

[2] = target: gp120 of HIV-1NL4-3 (on virus particles) (HIV-1 (NL4-3)); test: cell-based or functional assay

B1: MoMo30 protein from Momordica balsamina (purified from leaf extract, 30 kDa cutoff retentate) (other)
chain: GGIATYWGQDTREGRLTAACATGKFQIINIGFLSTFGNGRPPQVNLTRHCSPISNGCRNVSVGVLNCRNDGVKVMLSIGGPHGSYSLSSAAEAIDLADYIWNNFLGGRSTSLRPFGDVPLDGVDFRIERGQFSHYYTMVARRLHDYGRQCSRKVYLTAAPGCRFPDKYLTELLHTGLFDYVWVRFFDDRQCQYNSVNPSGFWWSWMRWINSIPARKFYVGIPASEEAGDGYVAPEVLIKEVLPFTKKFTNYGGVMLFDLSNDVQTNYSSIISNRV
notes: also called 30 kDa MoMo protein; hevamine A-related MoMo30 protein
B1 gave a Kd [1] of 6 µM, a koff [1] of 0.00242 s⁻¹ and a kon [1] of 400 M⁻¹ s⁻¹. The “IC50 of inhibition of HIV-1NL4-3 infectivity, MAGI cell assay” value [2] was 0.0028 µM.
